Data from patent US20120244144A1 (University of Texas, published 2012).

How the values were obtained:
Experiment in all cases: SPR, mAb 1B7 immobilised ~1000 RU
PTx-S1-220 R146A = molecular target: T1, PTx-S1-220 R146A (Bordetella pertussis strain Tohama I, UniProt P04977 36-255, R146A)
T1 sequence: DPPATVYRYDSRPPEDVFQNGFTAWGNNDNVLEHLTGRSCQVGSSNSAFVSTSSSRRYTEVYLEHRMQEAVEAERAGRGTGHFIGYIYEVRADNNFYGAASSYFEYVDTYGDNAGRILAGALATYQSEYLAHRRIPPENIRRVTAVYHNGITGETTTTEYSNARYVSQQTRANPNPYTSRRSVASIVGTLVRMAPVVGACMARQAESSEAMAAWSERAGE

PTx-S1-220 R79A = molecular target: T2, PTx-S1-220 R79A (Bordetella pertussis strain Tohama I, UniProt P04977 36-255, R79A)
T2 sequence: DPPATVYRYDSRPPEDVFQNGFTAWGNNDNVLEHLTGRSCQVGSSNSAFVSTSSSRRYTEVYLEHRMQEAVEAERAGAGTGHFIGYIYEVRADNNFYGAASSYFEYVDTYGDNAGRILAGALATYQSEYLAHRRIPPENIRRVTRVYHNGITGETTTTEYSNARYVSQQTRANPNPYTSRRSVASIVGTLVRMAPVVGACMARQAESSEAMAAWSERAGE

PTx-S1-220 E16A = molecular target: T3, PTx-S1-220 E16A (Bordetella pertussis strain Tohama I, UniProt P04977 36-255, E16A)
T3 sequence: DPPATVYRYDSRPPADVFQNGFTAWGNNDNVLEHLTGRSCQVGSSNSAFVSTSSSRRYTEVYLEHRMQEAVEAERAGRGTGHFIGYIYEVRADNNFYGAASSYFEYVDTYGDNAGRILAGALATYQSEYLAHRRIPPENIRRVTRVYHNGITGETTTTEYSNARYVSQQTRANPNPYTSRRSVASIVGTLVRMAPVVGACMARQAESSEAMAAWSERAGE

PTx-S1-220 T158A = molecular target: T4, PTx-S1-220 T158A (Bordetella pertussis strain Tohama I, UniProt P04977 36-255, T158A)
T4 sequence: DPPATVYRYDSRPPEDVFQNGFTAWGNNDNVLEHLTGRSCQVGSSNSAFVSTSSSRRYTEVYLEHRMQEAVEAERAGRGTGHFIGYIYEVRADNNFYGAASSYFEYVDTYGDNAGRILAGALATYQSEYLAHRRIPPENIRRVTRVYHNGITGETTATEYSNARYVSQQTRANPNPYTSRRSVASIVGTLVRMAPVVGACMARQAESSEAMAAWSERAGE

PTx-S1-220 T159A = molecular target: T5, PTx-S1-220 T159A (Bordetella pertussis strain Tohama I, UniProt P04977 36-255, T159A)
T5 sequence: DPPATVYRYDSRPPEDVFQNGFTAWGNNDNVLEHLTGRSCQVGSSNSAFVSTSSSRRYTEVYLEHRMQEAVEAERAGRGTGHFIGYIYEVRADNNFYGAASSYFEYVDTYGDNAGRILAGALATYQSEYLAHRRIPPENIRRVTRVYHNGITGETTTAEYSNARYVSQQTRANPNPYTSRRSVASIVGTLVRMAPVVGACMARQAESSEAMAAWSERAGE

PTx-S1-220 Y148A = molecular target: T6, PTx-S1-220 Y148A (Bordetella pertussis strain Tohama I, UniProt P04977 36-255, Y148A)
T6 sequence: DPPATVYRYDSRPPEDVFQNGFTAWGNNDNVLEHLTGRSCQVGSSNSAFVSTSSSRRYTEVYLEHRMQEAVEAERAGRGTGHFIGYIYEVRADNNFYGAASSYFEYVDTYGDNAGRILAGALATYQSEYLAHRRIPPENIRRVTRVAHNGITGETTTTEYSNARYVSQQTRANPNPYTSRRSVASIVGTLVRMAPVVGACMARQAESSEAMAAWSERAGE

PTx-S1-220 Y161A = molecular target: T7, PTx-S1-220 Y161A (Bordetella pertussis strain Tohama I, UniProt P04977 36-255, Y161A)
T7 sequence: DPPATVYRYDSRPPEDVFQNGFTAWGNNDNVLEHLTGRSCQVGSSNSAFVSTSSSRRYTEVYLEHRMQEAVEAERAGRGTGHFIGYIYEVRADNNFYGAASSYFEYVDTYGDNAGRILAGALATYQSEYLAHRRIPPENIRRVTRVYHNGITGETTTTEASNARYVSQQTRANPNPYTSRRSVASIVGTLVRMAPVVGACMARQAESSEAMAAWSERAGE

PTx-S1-220 N176A = molecular target: T8, PTx-S1-220 N176A (Bordetella pertussis strain Tohama I, UniProt P04977 36-255)
T8 chain: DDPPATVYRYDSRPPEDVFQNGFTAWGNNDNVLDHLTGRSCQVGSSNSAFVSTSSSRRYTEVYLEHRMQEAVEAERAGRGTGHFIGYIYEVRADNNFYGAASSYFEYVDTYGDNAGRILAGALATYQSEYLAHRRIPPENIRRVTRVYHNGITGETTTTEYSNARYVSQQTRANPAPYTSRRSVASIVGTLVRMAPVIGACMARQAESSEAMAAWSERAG

PTx-S1-220 N150A = molecular target: T9, PTx-S1-220 N150A (Bordetella pertussis strain Tohama I, UniProt P04977 36-255, N150A)
T9 sequence: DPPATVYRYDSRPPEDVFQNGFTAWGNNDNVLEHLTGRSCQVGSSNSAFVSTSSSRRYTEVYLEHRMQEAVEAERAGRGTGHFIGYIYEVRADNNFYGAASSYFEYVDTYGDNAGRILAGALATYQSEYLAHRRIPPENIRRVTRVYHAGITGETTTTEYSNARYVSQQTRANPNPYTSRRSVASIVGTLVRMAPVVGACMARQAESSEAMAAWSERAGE

PTx-S1-220 R39A = molecular target: T10, PTx-S1-220 R39A (Bordetella pertussis strain Tohama I, UniProt P04977 36-255, R39A)
T10 sequence: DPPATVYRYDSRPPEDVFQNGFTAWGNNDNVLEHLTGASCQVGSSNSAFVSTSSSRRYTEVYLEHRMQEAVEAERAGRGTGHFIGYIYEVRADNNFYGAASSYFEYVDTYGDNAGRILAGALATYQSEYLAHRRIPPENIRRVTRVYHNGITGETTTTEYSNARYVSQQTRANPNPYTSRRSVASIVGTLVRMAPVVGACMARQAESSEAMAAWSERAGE

B1: monoclonal antibody 1B7 (antibody)
chain: DIQMTQSPALMSASPGEKVTMTCSASSSVSFMYWYQQKPRSSPKPWIYLTSNLPSGVPARFSGSGSGTSYSLTISSMEAEDAATYYCQQWSSHPPTFGSGTKLEIKRGGGGSGGGGSGGGGSGGGGSEVQLQQSGSELVRPGASVKLSCKASGYKFTSYWMHWVKQRPGQGLEWIGNIFPGSGSTNYDEKFNSKATLTVDTSSNTAYMQLSSLTSEDSAVYYCTRWLSGAYFDYWGQGTTLTVSSASGA
notes: also called mAb 1B7; 1B7 mAb
koff (PTx-S1-220 R146A): 0.0015 s⁻¹
koff (PTx-S1-220 R79A): 0.025 s⁻¹
koff (PTx-S1-220 E16A): 0.0016 s⁻¹
koff (PTx-S1-220 T158A): 0.0013 s⁻¹
koff (PTx-S1-220 T159A): 0.0014 s⁻¹
koff (PTx-S1-220 Y148A): 0.029 s⁻¹
koff (PTx-S1-220 Y161A): 0.0013 s⁻¹
koff (PTx-S1-220 N176A): 0.0011 s⁻¹
koff (PTx-S1-220 N150A): 0.008 s⁻¹
koff (PTx-S1-220 R39A): 0.003 s⁻¹
